Data published in US6376217.

Biological target: T1, human CD5 cell differentiation marker (human, UniProt P06127 25-495)
T1 sequence: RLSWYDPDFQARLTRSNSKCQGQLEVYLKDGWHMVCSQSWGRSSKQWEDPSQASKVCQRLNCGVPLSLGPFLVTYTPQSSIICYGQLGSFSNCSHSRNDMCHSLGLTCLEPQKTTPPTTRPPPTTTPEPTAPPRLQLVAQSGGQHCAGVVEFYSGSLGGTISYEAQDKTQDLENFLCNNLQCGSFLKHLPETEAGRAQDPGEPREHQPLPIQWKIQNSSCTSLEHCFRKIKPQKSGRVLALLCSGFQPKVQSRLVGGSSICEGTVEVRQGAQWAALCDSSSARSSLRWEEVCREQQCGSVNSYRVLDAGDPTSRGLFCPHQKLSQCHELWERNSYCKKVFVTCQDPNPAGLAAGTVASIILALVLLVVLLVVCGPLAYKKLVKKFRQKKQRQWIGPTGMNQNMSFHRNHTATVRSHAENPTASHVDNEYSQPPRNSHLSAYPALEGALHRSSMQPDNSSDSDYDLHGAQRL
Experiment: cell-based or functional assay

B1: he3Fab-rGelA50(C44) (other)
heavy: EIQLVQSGGGLVKPGGSVRISCAASGYTFTNYGMNWVRQAPGKGLEWMGWINTHTGEPTYADSFKGRFTFSLDDSKNTAYLQINSLRAEDTAVYFCTRRGYDWYFDVWGQGTTVTVSS
light: DIQMTQSPSSLSASVGDRVTITCRASQDINSYLSWFQQKPGKAPKTLIYRANRLESGVPSRFSGSGSGTDYTLTISSLQYEDFGIYYCQQYDESPWTFGGGTKLEIK
chain: GLDTVSFSTKGATYITYVNFLNELRVKLKPEGNSHGIPLLRKKCDDPGKAFVLVALSNDNGQLAEIAIDVTSVYVVGYQVRNRSYFFKDAPDAAYEGLFKNTIKTRLHFGGSYPSLEGEKAYRETTDLGIEPLRIGIKKLDENAIDNYKPTEIASSLLVVIQMVSEAARFTFIENQIRNNFQQRIRPANNTISLENKWGKLSFQIRTSGANGMFSEAVELERANGKKYYVTAVDQVKPKIALLKFVDKDPK
- IC50 (pMT), whole cell cytotoxicity, CEM Cells: 173 pMT
